# Test results as given in IntAct's records for PubMed 23942232.
# B1: TNF receptor-associated factor 6 (Mus musculus), P70196 (parent)
# chain: MSLLNCENSCGSSQSSSDCCAAMAASCSAAVKDDSVSGSASTGNLSSSFMEEIQGYDVEFDPPLESKYECPICLMALREAVQTPCGHRFCKACIIKSIRDAGHKCPVDNEILLENQLFPDNFAKREILSLTVKCPNKGCLQKMELRHLEDHQVHCEFALVNCPQCQRPFQKCQVNTHIIEDCPRRQVSCVNCAVSMAYEEKEIHDQSCPLANIICEYCGTILIREQMPNHYDLDCPTAPIPCTFSVFGCHEKMQRNHLARHLQENTQLHMRLLAQAVHNVNLALRPCDAASPSRGCRPEDPNYEETIKQLESRLVRQDHQIRELTAKMETQSMYVGELKRTIRTLEDKVAEMEAQQCNGIYIWKIGNFGMHLKSQEEERPVVIHSPGFYTGRPGYKLCMRLHLQLPTAQRCANYISLFVHTMQGEYDSHLPWPFQGTIRLTILDQSEALIRQNHEEVMDAKPELLAFQRPTIPRNPKGFGYVTFMHLEALRQGTFIKDDTLLVRCEVSTRFDMGGLRKEGFQPRSTDAGV
# Variants of: B1
# Conditions: with ern1_mouse Ern1, Q9EQY0
# Sequence of ern1_mouse Ern1, Q9EQY0 (Q9EQY0 whole entry): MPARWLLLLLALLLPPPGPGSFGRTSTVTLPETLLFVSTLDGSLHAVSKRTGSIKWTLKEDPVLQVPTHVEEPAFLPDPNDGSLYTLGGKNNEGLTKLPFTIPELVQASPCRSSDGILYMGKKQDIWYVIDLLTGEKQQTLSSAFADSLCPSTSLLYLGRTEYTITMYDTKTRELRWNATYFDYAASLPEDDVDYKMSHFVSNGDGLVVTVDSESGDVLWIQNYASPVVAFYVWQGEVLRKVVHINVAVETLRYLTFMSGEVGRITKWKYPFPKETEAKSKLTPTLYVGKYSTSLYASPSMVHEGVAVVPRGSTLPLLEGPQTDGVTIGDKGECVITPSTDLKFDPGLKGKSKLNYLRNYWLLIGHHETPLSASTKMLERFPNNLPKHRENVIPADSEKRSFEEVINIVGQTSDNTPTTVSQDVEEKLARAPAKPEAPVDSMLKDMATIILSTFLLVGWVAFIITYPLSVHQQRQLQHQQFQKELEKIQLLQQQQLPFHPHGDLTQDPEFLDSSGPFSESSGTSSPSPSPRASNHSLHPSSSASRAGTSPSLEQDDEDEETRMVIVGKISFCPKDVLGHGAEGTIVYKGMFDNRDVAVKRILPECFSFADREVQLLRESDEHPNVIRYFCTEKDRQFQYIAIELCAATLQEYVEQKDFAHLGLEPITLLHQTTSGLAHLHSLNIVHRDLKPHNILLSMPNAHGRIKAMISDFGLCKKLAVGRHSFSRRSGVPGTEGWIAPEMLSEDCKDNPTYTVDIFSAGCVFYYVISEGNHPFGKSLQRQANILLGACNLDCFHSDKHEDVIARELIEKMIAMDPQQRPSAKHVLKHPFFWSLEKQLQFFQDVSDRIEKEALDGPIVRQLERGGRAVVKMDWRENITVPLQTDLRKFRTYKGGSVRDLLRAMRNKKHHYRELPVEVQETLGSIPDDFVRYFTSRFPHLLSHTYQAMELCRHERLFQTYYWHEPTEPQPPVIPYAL
row,effect of a mutation on the interaction,Variant
1,increasing interaction,C70A
